Laboratory results from PMC1839166, “Type III Effector Activation via Nucleotide Binding, Phosphorylation, and Host Target Interaction” (PLoS Pathogens, 2007).

Key:
[1] = biological target: T1, avirulence protein B (AvrB), wild type (Pseudomonas syringae pv. glycinea, UniProt P13835 1-321); test: ITC; VP-ITC microcalorimeter; RIN4_(142–176) peptide (50 to 450 μM) titrated in 6-μl injections into 5 to 25 μM wild-type or variant AvrB, stirring at 255 rpm; wild-type AvrB 6 μM with full-length RIN4 120 μM; nonbinding confirmed at as much as 25 μM and 450 μM; details: both partners purified
T1 construct: AvrB (avirulence protein B), type III effector of Pseudomonas syringae pv. glycinea; residues 26-53 and 56-321 are modelled in the AvrB/RIN4 structure; also called wild-type AvrB; source: E. coli BL21 Rosetta (pProEX-HTa), purified (nickel column, TEV digestion, Source Q, Sephacryl S200 if needed); not shown: His tag, N-terminal, cleaved

[2] = biological target: T2, AvrB^QRY/AAA (Pseudomonas syringae pv. glycinea, UniProt P13835 1-321, QRY/AAA (Q208, R209, and Y210 to alanine)); test: as above; details: both partners purified
T2 construct: AvrB (avirulence protein B), Pseudomonas syringae pv. glycinea; also called triple mutation of Q208, R209, and Y210 to alanine; source: E. coli BL21 Rosetta, purified (glutathione column, TEV digestion, Source Q); not shown: GST, N-terminal, cleaved
T2 sequence: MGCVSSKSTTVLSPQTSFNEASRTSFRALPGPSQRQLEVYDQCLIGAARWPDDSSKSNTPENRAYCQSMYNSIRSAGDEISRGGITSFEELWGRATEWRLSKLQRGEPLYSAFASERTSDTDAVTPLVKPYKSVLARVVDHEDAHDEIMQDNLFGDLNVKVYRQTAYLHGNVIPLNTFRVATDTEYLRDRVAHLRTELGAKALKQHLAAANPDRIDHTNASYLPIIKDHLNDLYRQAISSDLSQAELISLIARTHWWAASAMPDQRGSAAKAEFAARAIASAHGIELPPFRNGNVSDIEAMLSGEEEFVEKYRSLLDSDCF

T1 sequence (P13835 whole entry, the tested form may be a part): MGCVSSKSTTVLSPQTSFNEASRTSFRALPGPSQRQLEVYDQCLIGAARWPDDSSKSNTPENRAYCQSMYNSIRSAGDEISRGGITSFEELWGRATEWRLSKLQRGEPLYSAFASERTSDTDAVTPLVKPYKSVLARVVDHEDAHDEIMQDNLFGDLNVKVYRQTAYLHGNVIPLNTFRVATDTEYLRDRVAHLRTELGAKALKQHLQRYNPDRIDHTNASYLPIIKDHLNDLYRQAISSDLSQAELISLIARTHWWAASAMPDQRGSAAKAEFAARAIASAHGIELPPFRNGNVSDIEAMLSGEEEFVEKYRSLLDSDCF

B1: RIN4_(142–176) (peptide, UniProt Q8GYN5 142-176, looked up)
peptide: PEKVTVVPKFGDWDENNPSSADGYTHIFNKVREER
notes: the last four residues are printed as REER; residues 150-172 are modelled in the structure; also called RIN4 peptide
[1]
  Kd: 3 µM
[2]
  Kd: 9 µM
